B1: PTPRD (parent)
chain: ITWFKDFLPVDTSNNNGRIKQLRS
B2: TCEB3B (parent)
chain: STTALGDKQRKANESKGTRESWDS

Variants of: B1
Assay: protein stability index of a GFP-peptide fusion (GPS, HEK-293T) (PSI 1-6); higher = more stable
Settings: c terminus: a fixed tail appended
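Note: lentivirally expressed fusions sorted by FACS into six bins by GFP to DsRed ratio, PSI derived from sequencing read proportions per bin multiplied by bin number.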

Variant	protein stability index
ITWFKDFLPVDTSNNNGRIPQLRS [K20P]	1.61
ITWFKDFLPVDTSNNNGRIQQLRS [K20Q]	1.94
ITWFKDFLPVDTSNNNGRIRQLRS [K20R]	1.53
ITWFKDFLPVDTSNNNGRISQLRS [K20S]	2.72
ITWFKDFLPVDTSNNNGRITQLRS [K20T]	1.95
ITWFKDFLPVDTSNNNGRIVQLRS [K20V]	1.68
ITWFKDFLPVDTSNNNGRIWQLRS [K20W]	1.95
ITWFKDFLPVDTSNNNGRIYQLRS [K20Y]	2.19
ITWFKDFLPVDTSNNNGRIKALRS [Q21A]	1.57
ITWFKDFLPVDTSNNNGRIKCLRS [Q21C]	1.52
ITWFKDFLPVDTSNNNGRIKDLRS [Q21D]	2.17
ITWFKDFLPVDTSNNNGRIKELRS [Q21E]	2.2
ITWFKDFLPVDTSNNNGRIKFLRS [Q21F]	1.75
ITWFKDFLPVDTSNNNGRIKGLRS [Q21G]	2.28
ITWFKDFLPVDTSNNNGRIKHLRS [Q21H]	1.56
ITWFKDFLPVDTSNNNGRIKILRS [Q21I]	2.23
ITWFKDFLPVDTSNNNGRIKKLRS [Q21K]	2.58
ITWFKDFLPVDTSNNNGRIKLLRS [Q21L]	1.73
ITWFKDFLPVDTSNNNGRIKMLRS [Q21M]	1.45
ITWFKDFLPVDTSNNNGRIKNLRS [Q21N]	1.99
ITWFKDFLPVDTSNNNGRIKPLRS [Q21P]	2.01

Variant	protein stability index
ITWFKDFLPVDTSNNNGRIKRLRS [Q21R]	1.55
ITWFKDFLPVDTSNNNGRIKSLRS [Q21S]	2.38
ITWFKDFLPVDTSNNNGRIKTLRS [Q21T]	1.69
ITWFKDFLPVDTSNNNGRIKVLRS [Q21V]	1.67
ITWFKDFLPVDTSNNNGRIKWLRS [Q21W]	2.24
ITWFKDFLPVDTSNNNGRIKYLRS [Q21Y]	1.93
ITWFKDFLPVDTSNNNGRIKQARS [L22A]	1.69
ITWFKDFLPVDTSNNNGRIKQCRS [L22C]	1.61
ITWFKDFLPVDTSNNNGRIKQDRS [L22D]	2
ITWFKDFLPVDTSNNNGRIKQERS [L22E]	2.07
ITWFKDFLPVDTSNNNGRIKQFRS [L22F]	2.01
ITWFKDFLPVDTSNNNGRIKQGRS [L22G]	1.84
ITWFKDFLPVDTSNNNGRIKQHRS [L22H]	2.28
ITWFKDFLPVDTSNNNGRIKQIRS [L22I]	2.24
ITWFKDFLPVDTSNNNGRIKQKRS [L22K]	1.77
ITWFKDFLPVDTSNNNGRIKQMRS [L22M]	1.88
ITWFKDFLPVDTSNNNGRIKQNRS [L22N]	2.01
ITWFKDFLPVDTSNNNGRIKQPRS [L22P]	1.63
ITWFKDFLPVDTSNNNGRIKQQRS [L22Q]	1.62
ITWFKDFLPVDTSNNNGRIKQRRS [L22R]	1.83
ITWFKDFLPVDTSNNNGRIKQSRS [L22S]	2.04

Variant	protein stability index
ITWFKDFLPVDTSNNNGRIKQTRS [L22T]	2.12
ITWFKDFLPVDTSNNNGRIKQVRS [L22V]	1.62
ITWFKDFLPVDTSNNNGRIKQWRS [L22W]	1.84
ITWFKDFLPVDTSNNNGRIKQYRS [L22Y]	2.73
ITWFKDFLPVDTSNNNGRIKQLAS [R23A]	2.89
ITWFKDFLPVDTSNNNGRIKQLCS [R23C]	1.43
ITWFKDFLPVDTSNNNGRIKQLDS [R23D]	2.39
ITWFKDFLPVDTSNNNGRIKQLES [R23E]	2.77
ITWFKDFLPVDTSNNNGRIKQLFS [R23F]	1.88
ITWFKDFLPVDTSNNNGRIKQLGS [R23G]	1.74
ITWFKDFLPVDTSNNNGRIKQLHS [R23H]	1.74
ITWFKDFLPVDTSNNNGRIKQLIS [R23I]	1.88
ITWFKDFLPVDTSNNNGRIKQLKS [R23K]	2.55
ITWFKDFLPVDTSNNNGRIKQLLS [R23L]	1.81
ITWFKDFLPVDTSNNNGRIKQLMS [R23M]	1.88
ITWFKDFLPVDTSNNNGRIKQLNS [R23N]	1.83
ITWFKDFLPVDTSNNNGRIKQLPS [R23P]	1.8
ITWFKDFLPVDTSNNNGRIKQLQS [R23Q]	2.09
ITWFKDFLPVDTSNNNGRIKQLSS [R23S]	1.83
ITWFKDFLPVDTSNNNGRIKQLTS [R23T]	2.04
ITWFKDFLPVDTSNNNGRIKQLVS [R23V]	1.91

Variant	protein stability index
ITWFKDFLPVDTSNNNGRIKQLWS [R23W]	1.11
ITWFKDFLPVDTSNNNGRIKQLYS [R23Y]	1.63
ITWFKDFLPVDTSNNNGRIKQLRA [S24A]	1.96
ITWFKDFLPVDTSNNNGRIKQLRC [S24C]	2.32
ITWFKDFLPVDTSNNNGRIKQLRD [S24D]	1.9
ITWFKDFLPVDTSNNNGRIKQLRE [S24E]	1.77
ITWFKDFLPVDTSNNNGRIKQLRF [S24F]	1.69
ITWFKDFLPVDTSNNNGRIKQLRG [S24G]	2.34
ITWFKDFLPVDTSNNNGRIKQLRH [S24H]	1.74
ITWFKDFLPVDTSNNNGRIKQLRI [S24I]	1.97
ITWFKDFLPVDTSNNNGRIKQLRK [S24K]	2.15
ITWFKDFLPVDTSNNNGRIKQLRL [S24L]	1.41
ITWFKDFLPVDTSNNNGRIKQLRM [S24M]	1.54
ITWFKDFLPVDTSNNNGRIKQLRN [S24N]	1.88
ITWFKDFLPVDTSNNNGRIKQLRP [S24P]	1.34
ITWFKDFLPVDTSNNNGRIKQLRQ [S24Q]	1.78
ITWFKDFLPVDTSNNNGRIKQLRR [S24R]	2.18
ITWFKDFLPVDTSNNNGRIKQLRT [S24T]	1.51
ITWFKDFLPVDTSNNNGRIKQLRV [S24V]	1.52
ITWFKDFLPVDTSNNNGRIKQLRW [S24W]	2.63
ITWFKDFLPVDTSNNNGRIKQLRY [S24Y]	1.94

Variants of: B2
Assay: as above
Settings: c terminus: a fixed tail appended

Variant	protein stability index
ATTALGDKQRKANESKGTRESWDS [S1A]	3.94
CTTALGDKQRKANESKGTRESWDS [S1C]	3.47
DTTALGDKQRKANESKGTRESWDS [S1D]	4.16
ETTALGDKQRKANESKGTRESWDS [S1E]	3.85
FTTALGDKQRKANESKGTRESWDS [S1F]	2.81
GTTALGDKQRKANESKGTRESWDS [S1G]	3.9
HTTALGDKQRKANESKGTRESWDS [S1H]	3.64
ITTALGDKQRKANESKGTRESWDS [S1I]	3.58
KTTALGDKQRKANESKGTRESWDS [S1K]	3.12
LTTALGDKQRKANESKGTRESWDS [S1L]	3.67
MTTALGDKQRKANESKGTRESWDS [S1M]	4.22
NTTALGDKQRKANESKGTRESWDS [S1N]	4.3
PTTALGDKQRKANESKGTRESWDS [S1P]	3.77
QTTALGDKQRKANESKGTRESWDS [S1Q]	3.67
RTTALGDKQRKANESKGTRESWDS [S1R]	3.88
TTTALGDKQRKANESKGTRESWDS [S1T]	3.61
VTTALGDKQRKANESKGTRESWDS [S1V]	4.06
WTTALGDKQRKANESKGTRESWDS [S1W]	2.74
YTTALGDKQRKANESKGTRESWDS [S1Y]	3.6
SATALGDKQRKANESKGTRESWDS [T2A]	4.32
SCTALGDKQRKANESKGTRESWDS [T2C]	3.8
SDTALGDKQRKANESKGTRESWDS [T2D]	4.01
SETALGDKQRKANESKGTRESWDS [T2E]	4.05
SFTALGDKQRKANESKGTRESWDS [T2F]	3.75
SGTALGDKQRKANESKGTRESWDS [T2G]	3.49
SHTALGDKQRKANESKGTRESWDS [T2H]	3.77

Variant	protein stability index
SITALGDKQRKANESKGTRESWDS [T2I]	3.29
SKTALGDKQRKANESKGTRESWDS [T2K]	4.11
SLTALGDKQRKANESKGTRESWDS [T2L]	3.67
SMTALGDKQRKANESKGTRESWDS [T2M]	3.94
SNTALGDKQRKANESKGTRESWDS [T2N]	4.25
SPTALGDKQRKANESKGTRESWDS [T2P]	3.94
SQTALGDKQRKANESKGTRESWDS [T2Q]	3.33
SRTALGDKQRKANESKGTRESWDS [T2R]	5.3
SSTALGDKQRKANESKGTRESWDS [T2S]	4.09
SVTALGDKQRKANESKGTRESWDS [T2V]	3.67
SWTALGDKQRKANESKGTRESWDS [T2W]	3.16
SYTALGDKQRKANESKGTRESWDS [T2Y]	3.33
STAALGDKQRKANESKGTRESWDS [T3A]	3.89
STCALGDKQRKANESKGTRESWDS [T3C]	3.22
STDALGDKQRKANESKGTRESWDS [T3D]	3.98
STEALGDKQRKANESKGTRESWDS [T3E]	4.33
STFALGDKQRKANESKGTRESWDS [T3F]	3.32
STGALGDKQRKANESKGTRESWDS [T3G]	4.22
STHALGDKQRKANESKGTRESWDS [T3H]	4.21
STIALGDKQRKANESKGTRESWDS [T3I]	3.72
STKALGDKQRKANESKGTRESWDS [T3K]	3.56
STLALGDKQRKANESKGTRESWDS [T3L]	3.83
STMALGDKQRKANESKGTRESWDS [T3M]	4.1
STNALGDKQRKANESKGTRESWDS [T3N]	3.77
STPALGDKQRKANESKGTRESWDS [T3P]	4.02
STQALGDKQRKANESKGTRESWDS [T3Q]	4.35

Variant	protein stability index
STRALGDKQRKANESKGTRESWDS [T3R]	3.89
STSALGDKQRKANESKGTRESWDS [T3S]	3.57
STVALGDKQRKANESKGTRESWDS [T3V]	4.36
STWALGDKQRKANESKGTRESWDS [T3W]	3.57
STYALGDKQRKANESKGTRESWDS [T3Y]	3.77
STTCLGDKQRKANESKGTRESWDS [A4C]	3.86
STTDLGDKQRKANESKGTRESWDS [A4D]	4.14
STTELGDKQRKANESKGTRESWDS [A4E]	4.14
STTFLGDKQRKANESKGTRESWDS [A4F]	3.56
STTGLGDKQRKANESKGTRESWDS [A4G]	3.75
STTHLGDKQRKANESKGTRESWDS [A4H]	3.82
STTILGDKQRKANESKGTRESWDS [A4I]	3.65
STTKLGDKQRKANESKGTRESWDS [A4K]	3.78
STTLLGDKQRKANESKGTRESWDS [A4L]	3.49
STTMLGDKQRKANESKGTRESWDS [A4M]	3.54
STTNLGDKQRKANESKGTRESWDS [A4N]	4.18
STTPLGDKQRKANESKGTRESWDS [A4P]	3.88
STTQLGDKQRKANESKGTRESWDS [A4Q]	3.9
STTRLGDKQRKANESKGTRESWDS [A4R]	3.34
STTSLGDKQRKANESKGTRESWDS [A4S]	3.81
STTTLGDKQRKANESKGTRESWDS [A4T]	4.46
STTVLGDKQRKANESKGTRESWDS [A4V]	3.96
STTWLGDKQRKANESKGTRESWDS [A4W]	3.62
STTYLGDKQRKANESKGTRESWDS [A4Y]	3.36
STTAAGDKQRKANESKGTRESWDS [L5A]	4.37
STTACGDKQRKANESKGTRESWDS [L5C]	3.44

Variant	protein stability index
STTADGDKQRKANESKGTRESWDS [L5D]	4.22
STTAEGDKQRKANESKGTRESWDS [L5E]	4.57
STTAFGDKQRKANESKGTRESWDS [L5F]	3.29
STTAGGDKQRKANESKGTRESWDS [L5G]	4.11
STTAHGDKQRKANESKGTRESWDS [L5H]	4.25
STTAIGDKQRKANESKGTRESWDS [L5I]	3.17
STTAKGDKQRKANESKGTRESWDS [L5K]	4.37
STTAMGDKQRKANESKGTRESWDS [L5M]	3.88
STTANGDKQRKANESKGTRESWDS [L5N]	4.14
STTAPGDKQRKANESKGTRESWDS [L5P]	4.37
STTAQGDKQRKANESKGTRESWDS [L5Q]	4.57
STTARGDKQRKANESKGTRESWDS [L5R]	4.03
STTASGDKQRKANESKGTRESWDS [L5S]	4.25
STTATGDKQRKANESKGTRESWDS [L5T]	4.63
STTAVGDKQRKANESKGTRESWDS [L5V]	4.08
STTAWGDKQRKANESKGTRESWDS [L5W]	3.64
STTAYGDKQRKANESKGTRESWDS [L5Y]	3.37
STTALADKQRKANESKGTRESWDS [G6A]	3.65
STTALCDKQRKANESKGTRESWDS [G6C]	3.74
STTALDDKQRKANESKGTRESWDS [G6D]	4.12
STTALEDKQRKANESKGTRESWDS [G6E]	4.31
STTALFDKQRKANESKGTRESWDS [G6F]	3.12
STTALHDKQRKANESKGTRESWDS [G6H]	3.78
STTALIDKQRKANESKGTRESWDS [G6I]	3.59
STTALKDKQRKANESKGTRESWDS [G6K]	3.3
STTALLDKQRKANESKGTRESWDS [G6L]	4.08
